Results on two molecules are retold here after patent US20230018888A1.

For orientation: EC50 means the concentration at which the effect is half-maximal. A lower EC50 goes with an effect from little substance.

This experiment concerns the target Adhesion G Protein-coupled Receptor E2 (ADGRE2), overexpressed on murine lymphoma EL4 cells (human) (UniProt Q9UHX3). Kind of experiment: flow cytometry, scFv titrated on EL4 cells overexpressing ADGRE2. In general terms: Flow cytometry measures light scatter and fluorescence of single cells or particles in a stream.
Chain of UniProt Q9UHX3 (Q9UHX3 24-823): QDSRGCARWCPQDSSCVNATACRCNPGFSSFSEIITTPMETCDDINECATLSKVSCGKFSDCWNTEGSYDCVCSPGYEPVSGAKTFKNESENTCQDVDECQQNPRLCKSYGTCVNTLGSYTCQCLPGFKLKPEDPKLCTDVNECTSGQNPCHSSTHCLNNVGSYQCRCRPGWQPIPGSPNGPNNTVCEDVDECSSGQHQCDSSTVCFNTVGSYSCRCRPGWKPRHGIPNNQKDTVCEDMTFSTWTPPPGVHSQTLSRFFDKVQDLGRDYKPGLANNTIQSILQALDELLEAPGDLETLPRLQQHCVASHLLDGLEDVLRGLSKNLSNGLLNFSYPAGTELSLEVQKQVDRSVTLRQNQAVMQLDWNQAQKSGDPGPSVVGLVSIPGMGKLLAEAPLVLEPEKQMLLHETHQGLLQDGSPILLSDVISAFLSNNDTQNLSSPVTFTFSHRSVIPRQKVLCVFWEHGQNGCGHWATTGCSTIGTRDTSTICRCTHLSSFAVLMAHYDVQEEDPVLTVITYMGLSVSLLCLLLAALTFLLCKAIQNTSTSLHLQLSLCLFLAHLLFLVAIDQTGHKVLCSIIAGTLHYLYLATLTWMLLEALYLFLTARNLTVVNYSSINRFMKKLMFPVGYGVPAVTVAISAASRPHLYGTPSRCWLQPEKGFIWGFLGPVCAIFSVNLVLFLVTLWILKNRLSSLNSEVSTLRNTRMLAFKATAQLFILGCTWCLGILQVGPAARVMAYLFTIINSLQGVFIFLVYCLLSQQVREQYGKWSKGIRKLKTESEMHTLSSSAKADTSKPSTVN

B1: anti-ADGRE2 scFv E (scFv, part only; not given: VH-VL linker, V domains shown, not shown: another chain or arm of the molecule; small tags and cut ends)
VH: QVQLQQSGAEVKKPGASVKVSCKASGYTFTNYWMQWVRQAPGQGLEWIGAVYPGDGDTRHTQKFKGRVTMTADKSTSTVYMELSSLRSEDTAVYYCARGFTAYGMDYWGQGTLVTVSS
VL: QIVLTQSPATLSLSPGERATLTCSASSSVSYMHWYQQKPGLSPKRWIYDTSKLASGVPDRFSGSGSGTDYTFTIRRLEPEDFATYYCQQWSSNPLTFGQGTKVEIK
Molecule B1 came in with an EC50 of 10.6 nM.

B2: anti-ADGRE2 scFv M (scFv, part only; not given: VH-VL linker, V domains shown, not shown: another chain or arm of the molecule; small tags and cut ends)
VH: QVQLQQSGAEVKKPGASVKLSCKASGYTFTNYWMQWIRQAPGQGLEWIGAVYPGDGDTRYTQKFQGRATLTADTSTSTAYMEVSSLRSEDTAVYYCARGFTAYGMDYWGQGTTVTVSS
VL: EIVLTQSPATLSASPGERVTMSCSASSSVSYMHWYQQKPGLAPRRWIYDTSKLASGVPDRFSGSGSGTDYTFTISRMEPEDFATYYCQQWSSNPLTFGGGTKLEIK
Molecule B2 showed an EC50 of 16.4 nM.
